# Laboratory results: patent US7393946, “Method of modulating metabolite biosynthesis in recombinant cells” (Rijksuniversiteit Leiden)
# Columns and labels:
# ORCA-1 = ORCA-1 (Catharanthus roseus); experiment: cell_activity; within Str1 BH promoter, GUS/CAT, C. roseus cells
# ORCA-2 = ORCA-2 (Catharanthus roseus); experiment: as above
# Sequence of ORCA-2 (Catharanthus roseus) (chain, as listed by the source): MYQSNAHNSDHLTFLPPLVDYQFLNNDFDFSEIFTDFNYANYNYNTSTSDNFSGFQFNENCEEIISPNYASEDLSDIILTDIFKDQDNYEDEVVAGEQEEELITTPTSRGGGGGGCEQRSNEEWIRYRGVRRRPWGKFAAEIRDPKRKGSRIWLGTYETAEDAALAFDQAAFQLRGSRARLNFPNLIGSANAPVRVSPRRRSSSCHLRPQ
# Sequence of ORCA-1 (Catharanthus roseus) (chain, as listed by the source): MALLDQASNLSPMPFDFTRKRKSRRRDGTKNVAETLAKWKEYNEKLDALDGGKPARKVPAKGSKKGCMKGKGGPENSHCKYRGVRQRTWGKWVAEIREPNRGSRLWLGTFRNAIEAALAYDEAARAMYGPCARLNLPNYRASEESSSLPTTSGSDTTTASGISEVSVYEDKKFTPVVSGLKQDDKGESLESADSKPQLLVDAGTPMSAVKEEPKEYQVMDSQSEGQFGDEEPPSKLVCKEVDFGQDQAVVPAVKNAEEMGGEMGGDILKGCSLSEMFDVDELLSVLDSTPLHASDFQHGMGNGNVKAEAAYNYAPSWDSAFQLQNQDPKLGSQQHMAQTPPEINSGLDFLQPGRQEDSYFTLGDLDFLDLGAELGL
binder,measurement,setting,value
RV region of Str1 promoter (dsDNA) DNA 1: GTACATCACTCTTAGACCGCCTTCTTTGAAAGTGATTTCCCTTGGACC DNA 2: GGTCCAAGGGAAATCACTTTCAAAGAAGGCGGTCTAAGAGTGATGTAC,activity,ORCA-1,1.6 fold induction
same,activity,ORCA-2,3.3 fold induction
